Where no end group is shown, it is not given here.
Legend:
[1] = system: gram-positive spoilage and pathogenic bacteria; details: various foods (dairy, meats and others); cited from earlier work
[2] = Nisin adsorption to silicon wafers measured by ellipsometry (hydrophilic surface); format: physicochemical; details: hydrophilic silicon wafer; nisin concentration range 0.1 to 1.0 mg/mL
Source text: (§1) This example is an investigation of the binding ability of nisin on hydrophilic surfaces and on such surfaces made strongly hydrophobic by silanization. As representative hydrophilic surfaces, we selected monocrystalline silicon because this material is homogeneous, has substantially no pores or surface cavities, and has optical properties amenable to analysis using a laser beam.
(§2) Optically flat, monocrystalline silicon wafers (Wacker Siltronic Corp., Portland, Oreg.) having 1-0-0 orientation and a resistivity of 0.1 to 0.16 ohm.cm were cut into 1×2 cm wafers using a tungsten knife. The wafer surfaces were polished to a mirror finish.
A first quantity of wafers was made hydrophilic by oxidation wherein the wafers were immersed in a mixture of NH4 OH:H2 O2 :H2 O (1:1:5) at 80° C. for 15 minutes. The wafers were then rinsed using distilled deionized water followed by an immersion in HCl:H2 O2 :H2 O (1:1:5) for 15 minutes at 80° C. […]
Hydrophilicity and hydrophobicity were confirmed by contact angle analysis according to McGuire, J. Food Eng. […] In brief, hydrophobicity was determined by measuring the nondispersive component of the work Wa^p required to remove water from a surface, wherein Wa^p is defined according to equation (1) in said McGuire reference. This value was gained using contact-angle methods, and all food-contact surfaces can be analyzed in this way. […]

[3] = system: Pediococcus pentosaceus strain FBB61-2; experiment: Desorption of nisin from wafers by rinsing, followed by agar-well diffusion assay; format: cell-based
Experimental: Nisin was adsorbed to hydrophilic and hydrophobic silicon wafers as described in example 1. We then attempted to desorb nisin from the wafers by placing 50 μL of 0.01M phosphate buffer (pH 6.0) containing 1% polyoxyethylene sorbitan (Tween 80) on each wafer and "agitating" the droplet over the entire wafer surface using a pipette tip. The 50 μL droplet was then transferred to 5.6-mm diameter wells that had been made in seeded agar. As controls, we also attempted to desorb nisin from nisin-coated wafers using the phosphate buffer without Tween 80.
In FIG. 3, the activity of desorbed nisin (from hydrophilic surfaces) is seen as inhibition zones in the agar-well diffusion assay. The amount of recovered nisin roughly corresponded to the relative mass of nisin initially adsorbed to the wafers, similar to the previously described relationships shown in FIGS. 1 and 2. The only exception was the inhibition zone of well 10, wherein the unusually small diameter of the inhibition zone resulted from most of the desorbed nisin being lost during manipulations.
It should be noted that the amount of nisin that became adsorbed onto the wafer surfaces was an amount sufficient for inhibition of susceptible bacteria. Commonly, about 100 Units/g are used in food products to prevent the outgrowth of gram-positive bacterial spores and vegetative cells. […]

[4] = cited from earlier work
[5] = Nisin adsorption to silicon wafers measured by ellipsometry (hydrophobic, silanized surface); format: physicochemical
Source text: as §1, §2
A second quantity of wafers was made hydrophobic by silanization with dichlorodimethylsilane according to Jonsson et al., J. Colloid Interface Sci. 90:148-163 (1982) .
Hydrophilicity and hydrophobicity were confirmed by contact angle analysis according to McGuire, J. Food Eng. 12:239-247 (1990), incorporated herein by reference. In brief, hydrophobicity was determined by measuring the nondispersive component of the work Wa^p required to remove water from a surface, wherein Wa^p is defined according to equation (1) in said McGuire reference. This value was gained using contact-angle methods, and all food-contact surfaces can be analyzed in this way. […] A low value indicates strong hydrophobicity and a high value indicates strong hydrophilicity. […]

[6] = system: Pediococcus pentosaceus strain FBB61-2; experiment: Bioassay of adsorbed nisin: wafers placed face down on seeded MRS agar, inhibition zones; format: cell-based; details: hydrophilic wafers with nisin adsorbed from 0.1 to 1.0 mg/mL solutions, 4° C. 24 hours then 37° C.
Experimental: The activity of adsorbed nisin was evaluated by a bioassay performed as follows: Petri dishes (150×25 mm) containing MRS agar (Difco, Detroit, Mich.) were seeded with 0.1% v/v of a standardized overnight culture of Pediococcus pentosaceus strain FBB61-2 bacteria. Silicon wafers having hydrophilic surfaces were prepared as described above. Such wafers were prepared with and without adsorbed nisin. Wafers were placed face down directly onto the seeded agar surfaces. The Petri dishes were then incubated at 4° C. for 24 hours, then incubated at 37° C.
Referring to FIG. 2, the silicon wafers numbered 1-10 were subjected to adsorption of nisin from 0.1 to 1.0 mg/mL nisin solutions, respectively (in 0.1 mg/mL increments). […] Qualitatively, it can be seen in FIG. 2 that the amount of nisin antimicrobial activity associated with the nisin-coated wafers (as indicated by the diameters of the respective inhibition zones) corresponds to the mass of nisin that actually adsorbed to the respective wafer as shown in FIG. 1; i.e., the smallest inhibition zone corresponded with the smallest adsorbed mass of nisin.

[7] = high-potency grade from Aplin and Barrett Ltd.; cited from earlier work

| Substance | control of gram-positive bacteria in foods [1] | adsorption plateau on hydrophilic surface [2] | desorption by rinsing with phosphate buffer without Tween 80 ([3]; 0.01M phosphate buffer pH 6.0, no Tween 80) | desorption by phosphate buffer containing Tween 80 ([3]; 0.01M phosphate buffer pH 6.0 with 1% Tween 80) | period of retained bacteriocidal activity ([4]; ambient temperatures (0°-40° C.)) | stability of activity at pH 11 ([4]; pH 11) | potency of purified dry powder on storage ([4]; refrigeration storage) | reversal of adsorption in more dilute solution ([5]; hydrophilic and hydrophobic wafers, 12-hour post-adsorption exposure to buffer (FIG. 1 circles)) | upper limit (plateau) of adsorbed mass of nisin ([5]; hydrophobic (silanized) silicon wafer, pH 6.0 phosphate buffer, 8 hours contact, consistent with a monolayer) | diameter of inhibition zone around nisin-containing wafers [6] | nominal nisin activity [7] |
| --- | --- | --- | --- | --- | --- | --- | --- | --- | --- | --- | --- |
| Pediocin AcH (KYYGNGVTCGKHSCSVDWGKATTCIINNGAMAWATGGHQGNHKC; ends and bridges not checked; cysteine pairing not given here; UniProt P29430 19-62, looked up) [wide-spectrum bacteriocin produced by lactic-acid bacteria, first identified in 1984] | efficacious in controlling a wide range of spoilage and pathogenic gram-positive bacteria |  |  |  |  |  |  |  |  |  |  |
| Pediocin PA1 (KYYGNGVTCGKHSCSVDWGKATTCIINNGAMAWATGGHQGNHKC; ends and bridges not checked; cysteine pairing not given here; UniProt P29430 19-62, looked up) [wide-spectrum bacteriocin produced by lactic-acid bacteria] | found to control gram-positive bacterial populations |  |  |  |  |  |  |  |  |  |  |
| nisin (ITSISLCTPGCKTGALMGCNMKTATCHCSIHVSK; ends and bridges not checked; also: five thioether crosslinks (ring bridges), places not given here; UniProt P13068 24-57, looked up) | effective in preserving these foods | did not attain a plateau value | resistant to desorption | able to desorb nisin | 16-24 months | can be lost rapidly | retains its potency indefinitely | does not appear to reverse | about 0.36 mg/cm^2 | generally proportional to the log10 concentration of the nisin solution | 45.5×10^6 Units/g |
